Assay results from paper PMC8505757 (Journal of Molecular Biology, 2021).
Non-standard residues stand in square brackets, D forms with d. pS = N[C@@H](COP(=O)(O)O)C(=O)O

Molecular target: T1, 14-3-3σΔC (human, UniProt P31947 1-231)
T1 sequence (looked up): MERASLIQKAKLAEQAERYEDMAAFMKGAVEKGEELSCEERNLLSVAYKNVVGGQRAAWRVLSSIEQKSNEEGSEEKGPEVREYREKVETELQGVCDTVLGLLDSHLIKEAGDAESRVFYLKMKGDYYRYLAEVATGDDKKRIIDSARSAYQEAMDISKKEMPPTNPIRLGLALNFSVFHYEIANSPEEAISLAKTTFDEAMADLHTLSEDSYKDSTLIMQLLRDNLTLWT
Experiment: crystal structure

B1: Ataxin-1 pS776 peptide (AcNH-RKRRWpSAPESR-NH2) (peptide)
peptide: Ac-RKRRW[pS]APESR-NH2
SMILES: CC(=O)N[C@@H](CCCNC(=N)N)C(=O)N[C@@H](CCCCN)C(=O)N[C@@H](CCCNC(=N)N)C(=O)N[C@@H](CCCNC(=N)N)C(=O)N[C@@H](Cc1c[nH]c2ccccc12)C(=O)N[C@@H](COP(=O)(O)O)C(=O)N[C@@H](C)C(=O)N1CCC[C@H]1C(=O)N[C@@H](CCC(=O)O)C(=O)N[C@@H](CO)C(=O)N[C@@H](CCCNC(=N)N)C(N)=O
- binding result: binds
